Laboratory results from patent publication EP2130555A1.

What was measured:
[1] = molecular target: hexahistidine-tagged bacterial gyrase subunit B (GyrB) of E. coli (E. coli) (UniProt P0AES6); assay: ultrafiltration through a 50 kDa cut-off filter, with coumermycin (GyrB : coumermycin = 2:1; dimer is held back)
[2] = molecular target: hexahistidine-tagged bacterial gyrase subunit B (GyrB) of E. coli (E. coli) (UniProt P0AES6); assay: ultrafiltration through a 50 kDa cut-off filter, without coumermycin (monomer passes the filter)
[3] = molecular target: hexahistidine-tagged bacterial gyrase subunit B (GyrB) of E. coli (E. coli) (UniProt P0AES6); assay: cell-based or functional assay

## hexahistidine-tagged bacterial gyrase subunit B (GyrB) of E. coli (from UniProt P0AES6 1-220) (enzyme)
[1]
  % of protein in filtrate: 2.8%
[2]
  % of protein in filtrate: 54%
[3]
  hydrogel dissolution in PBS with 1 mM novobiocin, followed by release of GyrB-polymer complexes into the buffer: 11 h
  stability of hydrogels with DMS-crosslinked GyrB dimers in PBS with 1 mM novobiocin: 31 h
